Legend:
[1] = target: nanobody‐based trispecific T cell engager (Nb‐TriTE) (human, UniProt P01857 = IgG part); experiment: SPR
Muromonab = experiment: SPR

B1: rhCD3 (protein)
chain: DGNEEMGGITQTPYKVSISGTTVILTCPQYPGSEILWQHNDKNIGGDEDDKNIGSDEDHLSLKEFSELEQSGYYVCYPRGSKPEDANFYLYLRARVCENCMEMD
With B1 the Kd [1] was 0.337 nM and the Kd (Muromonab) was 7.68 nM.
